Columns and labels:
[1] = test system: BRCA1-deficient RPE1-hTERT cells; test: Olaparib sensitivity assay; assay type: cell-based; conditions: viral delivery of HA-tagged i53; compared to genetic deletion of 53BP1; Trypan blue viable count
Text: FIG. 9 Expression of i53 suppresses PARP inhibitor sensitivity of BRCA1-deficience cells. FIG. 9A, An isogenic set of cell lines derived from RPE 1-hTERT cells deleted for the gene coding for p53 (TP53Δ) containing either no further mutations (WT) or null mutations in BRCA1 (BRCA1Δ) or 53BP1 (53BP1Δ) alone or in combination, as indicated. These cell lines were transduced either with an empty virus (EV) or with lentiviruses that express HA-tagged i53 or its DM mutant. The virus also expressed GFP from an IRES. After sorting for GFP cells the viability of cells following olaparib treatment for […] was monitored by trypan blue exclusion. Data is presented as the mean +/− s.d. (N=3). FIG. 9B , Whole-cell extracts from the isogenic sets of RPE1-hTERT TP53Δ cells were separated by SDS page and probed by immunoblotting with the indicated antibodies. FIG. 9C , Expression of the HA-tagged Ubvs in the indicated RPE1-hTERT TP53Δ cell lines was determined by anti-HA immunoprecipitation (IP) followed by immunoblotting.
RPE1 hTERT cells were obtained from ATTC and maintained in DMEM +10% FCS. […]
Cells were seeded at a density of 20,000 cells/well in 6-well plates in the presence of olaparib at day 0. […] At day 6, cells were collected by trypsinization and viable cell count was determined by Trypan blue exclusion using an automated cell counter (Vi-CELL, Beckman Coulter).

RBMXL1 = molecular target: T1, RBMXL1 (Homo sapiens, UniProt Q96E39); test: Flag IP-MS of i53/i53-DM baits: prey RBMXL1; assay type: binding; conditions: 293T Flp-In/T-Rex extracts, LC-MS/MS, one column per replicate IP
T1 construct: endogenous in cells; host or cells: HEK293 Flp-In/T-REx cells
Protocol: (§1) Following immunoprecipitation of Flag-tagged i53 and i-53-DM from HEK293 Flp-In/T-REx cells, peptides were identified using LC-MS/MS. Proteins were digested in solution with trypsin (Sigma, T7575-1KT) and dried to completeness. For LC-MS/MS analysis, peptides were reconstituted in 5% formic acid and loaded onto a 12-15 cm fused silica column with pulled tip packed in-house with 3.5 μm Zorbax C18 (Agilent Technologies, Calif., USA).
(§2) i53 and i53-DM precipitates were analyzed using an LTQ (Thermo Scientific) coupled to an Agilent 1100 Series HPLC (Agilent Technologies). Peptides were eluted from the column using a 90 min period cycle with a linear gradient from 0% to 40% ACN in 0.1% formic acid. Tandem MS spectra were acquired in a data-dependent mode for the top 5 (LTQ) most abundant ions using collision-induced dissociation. Acquired spectra were searched against the human Refseq_V53 database using Mascot (Matrix Science).
(§3) 293T Flp-In/T-Rex cell lines were generated that expressed Flag-tagged i53 or i53-DM under the control of a tetracycline-inducible promoter as previously described. Nine IP-MS experiments were analyzed (3 biological replicate IPs each for control i53- and i53-DM expressing cell lines). The interacting proteins were identified by MASCOT to identify high-confidence interactors for i53. […]

FMR1 = molecular target: T2, FMR1 (Homo sapiens, UniProt Q06787); test: Flag IP-MS of i53/i53-DM baits: prey FMR1; assay type: binding; conditions: 293T Flp-In/T-Rex extracts, LC-MS/MS, one column per replicate IP
T2 construct: endogenous in cells; host or cells: HEK293 Flp-In/T-REx cells
Protocol: as §1, §2, §3

T1 sequence (Q96E39 whole entry): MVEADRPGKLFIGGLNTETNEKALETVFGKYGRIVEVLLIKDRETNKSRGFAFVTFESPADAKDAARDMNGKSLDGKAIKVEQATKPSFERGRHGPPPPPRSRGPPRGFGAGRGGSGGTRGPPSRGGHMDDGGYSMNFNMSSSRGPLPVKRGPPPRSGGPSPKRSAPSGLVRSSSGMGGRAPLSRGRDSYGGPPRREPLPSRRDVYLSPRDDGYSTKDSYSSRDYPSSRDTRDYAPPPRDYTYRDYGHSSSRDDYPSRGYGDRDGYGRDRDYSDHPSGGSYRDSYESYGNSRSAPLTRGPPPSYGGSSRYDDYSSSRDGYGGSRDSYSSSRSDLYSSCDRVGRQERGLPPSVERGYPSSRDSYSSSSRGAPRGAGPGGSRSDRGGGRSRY

| Total peptides, RBMXL1 (RBMXL1) | Total peptides, FMR1 (FMR1) | Substance | Alleviation of PARP inhibitor (olaparib) sensitivity [1] |
| --- | --- | --- | --- |
|  |  | i53: UbvG08 with C-terminal di-glycine removed and I44A mutation; genetically encoded inhibitor of 53BP1 | only partially alleviated |
| 3 | 6 | i53-DM: 53BP1-binding deficient mutant of i53 (P69L, L70V) |  |

Source: patent publication US10808017B2, “Ubiquitin variants and uses therof as 53BP1 inhibitors” (The Governing Council of the University of Toronto, priority 2016, dated 2020)
